From US20230009539A1 (CLEVELAND CLINIC FOUNDATION, published 2023)
Blank lines part the entries; values can stand above or below the binder they belong to.

What was measured:
FLAG-hDcp2 = biological target: T1, FLAG-hDcp2 (human, UniProt Q8IU60 1-420); experiment: co-immunoprecipitation with anti-FLAG from transfected HeLa cells, HA blot
T1 construct: also called FLAG-tagged Dcp2; not shown: FLAG tag

[1] = biological target: T2, TBK1 (endogenous, HeLa cells) (human (HeLa cells), UniProt Q9UHD2 1-729); experiment: anti-Act1 immunoprecipitation from untreated and IL-17-treated HeLa cells (FIG. 4D)
T2 sequence (looked up): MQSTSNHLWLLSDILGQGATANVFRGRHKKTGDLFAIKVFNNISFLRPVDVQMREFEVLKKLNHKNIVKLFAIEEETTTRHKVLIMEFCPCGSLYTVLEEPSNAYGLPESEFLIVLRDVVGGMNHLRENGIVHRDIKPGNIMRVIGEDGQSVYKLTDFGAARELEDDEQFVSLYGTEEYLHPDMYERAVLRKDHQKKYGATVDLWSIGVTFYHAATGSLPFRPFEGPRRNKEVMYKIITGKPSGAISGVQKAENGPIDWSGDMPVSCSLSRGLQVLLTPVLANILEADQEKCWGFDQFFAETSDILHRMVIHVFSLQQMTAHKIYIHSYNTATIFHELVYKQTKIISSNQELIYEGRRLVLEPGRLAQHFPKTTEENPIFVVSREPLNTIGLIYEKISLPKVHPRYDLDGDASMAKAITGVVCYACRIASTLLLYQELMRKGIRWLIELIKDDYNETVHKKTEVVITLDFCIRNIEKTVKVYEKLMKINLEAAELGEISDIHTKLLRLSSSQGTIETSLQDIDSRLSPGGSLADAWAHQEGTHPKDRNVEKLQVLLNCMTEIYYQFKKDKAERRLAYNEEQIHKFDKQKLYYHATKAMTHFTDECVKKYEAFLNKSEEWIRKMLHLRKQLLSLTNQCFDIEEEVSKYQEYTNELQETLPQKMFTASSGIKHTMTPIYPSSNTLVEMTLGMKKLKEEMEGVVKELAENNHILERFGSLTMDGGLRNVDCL
Experimental: (§1) Immunoblot, immunoprecipitation and nuclear fractionation: Cell were harvested and lysed on ice in a lysis buffer containing 0.5% Triton X-100, 20 mM Hepes pH 7.4, 150 mM NaCl, 12.5 mM-glycerophosphate, 1.5 mM MgCl2, 10 mM NaF, 2 mM dithiothreitol, 1 mM sodium orthovanadate, 2 mM EGTA, […], and 1 mM phenylmethylsulfonyl fluoride for 20 minutes, followed by centrifuging at 12,000 rpm for 15 minutes to extract clear lysates. For immunoprecipitation, cell lysates were incubated with 1 μg of antibody and A-sepharose beads at 4 degree overnight. After incubation, the beads were washed four times with lysis buffer and the precipitates were eluted with 2× sample buffer. Elutes and whole cell extracts were resolved on SDS-PAGE followed by immunobloting with antibodies. Nuclear fractionation was performed using NUCLEI EZ PREP kit purchased from Sigma in accordance with the manufacturer's instruction. Nuclear pellets were suspended in 30p1 of nuclear extraction buffer (20 mM HEPES, 400 mM NaCl, 1 mM EDTA, 1 mM EGTA in water, pH 7.9) containing freshly prepared 1 mM DTT and protease inhibitor cocktail. After 1.5 h incubation on ice bath with intermittent vortexing, extracts were centrifuged and supernatant was collected for immunoprecipitation.

[2] = biological target: T3, IKKi (endogenous, HeLa cells) (human (HeLa cells), UniProt Q14164 1-716); experiment: as above
T3 sequence (looked up): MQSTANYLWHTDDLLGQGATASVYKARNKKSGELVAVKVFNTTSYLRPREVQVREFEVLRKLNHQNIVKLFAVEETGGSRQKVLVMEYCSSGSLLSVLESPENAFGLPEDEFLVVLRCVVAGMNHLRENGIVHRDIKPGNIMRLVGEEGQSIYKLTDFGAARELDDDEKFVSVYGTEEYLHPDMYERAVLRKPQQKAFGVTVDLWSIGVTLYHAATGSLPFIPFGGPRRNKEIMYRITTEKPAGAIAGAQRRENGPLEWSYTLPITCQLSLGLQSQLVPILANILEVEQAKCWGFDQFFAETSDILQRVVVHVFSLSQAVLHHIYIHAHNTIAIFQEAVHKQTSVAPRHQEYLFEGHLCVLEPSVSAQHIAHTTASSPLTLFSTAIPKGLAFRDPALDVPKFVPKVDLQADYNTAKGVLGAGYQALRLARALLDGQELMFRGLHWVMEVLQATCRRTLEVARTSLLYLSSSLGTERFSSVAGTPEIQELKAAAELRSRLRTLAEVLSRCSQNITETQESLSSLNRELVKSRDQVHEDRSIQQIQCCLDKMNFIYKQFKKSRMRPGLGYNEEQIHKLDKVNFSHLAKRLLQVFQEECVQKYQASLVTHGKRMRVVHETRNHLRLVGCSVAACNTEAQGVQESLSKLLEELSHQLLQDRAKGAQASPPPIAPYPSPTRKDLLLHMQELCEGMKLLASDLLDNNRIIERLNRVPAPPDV
Experimental: as §1

[3] = biological target: T4, Dcp1 (endogenous, HeLa cells) (human (HeLa cells), UniProt Q9NPI6 1-582); experiment: in situ proximity ligation assay with anti-Act1 and anti-Dcp1, endogenous proteins in HeLa cells, untreated or IL-17
T4 construct: its constructs and phospho-antibody are Dcp1a; also called Dcp1 decapping enzyme; Dcp1a
T4 sequence (looked up): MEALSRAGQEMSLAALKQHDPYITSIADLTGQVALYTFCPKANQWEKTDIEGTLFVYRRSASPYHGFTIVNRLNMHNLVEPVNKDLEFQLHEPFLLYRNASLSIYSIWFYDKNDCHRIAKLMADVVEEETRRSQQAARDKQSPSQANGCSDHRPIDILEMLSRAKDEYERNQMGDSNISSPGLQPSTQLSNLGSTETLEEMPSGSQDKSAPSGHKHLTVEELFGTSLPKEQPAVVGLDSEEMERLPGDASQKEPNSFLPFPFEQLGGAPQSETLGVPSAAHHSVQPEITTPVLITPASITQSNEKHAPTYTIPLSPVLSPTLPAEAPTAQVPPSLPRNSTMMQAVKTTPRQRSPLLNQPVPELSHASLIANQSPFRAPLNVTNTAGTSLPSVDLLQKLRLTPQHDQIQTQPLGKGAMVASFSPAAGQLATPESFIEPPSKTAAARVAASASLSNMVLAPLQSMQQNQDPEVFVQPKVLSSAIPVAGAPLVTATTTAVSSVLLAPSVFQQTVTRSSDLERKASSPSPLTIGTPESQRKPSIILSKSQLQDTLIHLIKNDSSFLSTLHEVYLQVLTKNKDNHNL

FLAG-hDcp1a = biological target: T5, FLAG-hDcp1a (human, UniProt Q9NPI6 1-582); experiment: in situ proximity ligation assay (anti-Flag and anti-HA) in HeLa cells co-transfected with Dcp1-FLAG and Act1-HA
T5 construct: also called Dcp1-Flag; FLAG-tagged Dcp1; not shown: FLAG tag
T5 sequence (looked up): T4 sequence (looked up)

FLAG-hIRAK1 = biological target: T6, FLAG-hIRAK1 (human, UniProt P51617 1-712); experiment: in situ proximity ligation assay (anti-Flag and anti-HA) in HeLa cells co-transfected with IRAK1-FLAG and Act1-HA (negative control)
T6 construct: Negative control of the PLA; also called IRAK1-Flag; not shown: FLAG tag
T6 sequence (P51617 whole entry): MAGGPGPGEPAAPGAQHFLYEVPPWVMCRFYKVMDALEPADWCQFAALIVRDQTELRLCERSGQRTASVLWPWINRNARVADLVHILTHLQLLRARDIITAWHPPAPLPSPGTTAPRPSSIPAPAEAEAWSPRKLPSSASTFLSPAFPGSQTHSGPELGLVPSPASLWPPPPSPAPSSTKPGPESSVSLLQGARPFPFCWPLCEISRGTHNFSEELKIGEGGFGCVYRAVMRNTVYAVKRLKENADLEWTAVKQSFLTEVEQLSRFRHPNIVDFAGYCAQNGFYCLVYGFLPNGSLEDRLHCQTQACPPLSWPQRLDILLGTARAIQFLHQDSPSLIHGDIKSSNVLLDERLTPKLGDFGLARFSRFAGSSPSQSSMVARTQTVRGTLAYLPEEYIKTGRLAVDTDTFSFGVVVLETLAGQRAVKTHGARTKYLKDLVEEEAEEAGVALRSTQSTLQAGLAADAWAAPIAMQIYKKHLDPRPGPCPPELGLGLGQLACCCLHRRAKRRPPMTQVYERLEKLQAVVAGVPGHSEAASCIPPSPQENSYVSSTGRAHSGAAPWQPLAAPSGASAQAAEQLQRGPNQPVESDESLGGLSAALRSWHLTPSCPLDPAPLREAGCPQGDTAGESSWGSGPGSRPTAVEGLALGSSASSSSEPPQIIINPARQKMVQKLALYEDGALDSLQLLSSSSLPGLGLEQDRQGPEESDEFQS

binding result (FLAG-hDcp2): no binding
B1: HA-TBK1 (enzyme, not shown: small tags and cut ends)
chain: T2 sequence (looked up)
notes: also called HA-tagged TBK1

binding result [1]: binds | binding result [2]: binds | binding result [3]: binds
B2: Act1 (endogenous, HeLa cells) (other, human (HeLa cells), UniProt O43734 1-574, looked up)
chain: MPPQLQETRMNRSIPVEVDESEPYPSQLLKPIPEYSPEEESEPPAPNIRNMAPNSLSAPTMLHNSSGDFSQAHSTLKLANHQRPVSRQVTCLRTQVLEDSEDSFCRRHPGLGKAFPSGCSAVSEPASESVVGALPAEHQFSFMEKRNQWLVSQLSAASPDTGHDSDKSDQSLPNASADSLGGSQEMVQRPQPHRNRAGLDLPTIDTGYDSQPQDVLGIRQLERPLPLTSVCYPQDLPRPLRSREFPQFEPQRYPACAQMLPPNLSPHAPWNYHYHCPGSPDHQVPYGHDYPRAAYQQVIQPALPGQPLPGASVRGLHPVQKVILNYPSPWDHEERPAQRDCSFPGLPRHQDQPHHQPPNRAGAPGESLECPAELRPQVPQPPSPAAVPRPPSNPPARGTLKTSNLPEELRKVFITYSMDTAMEVVKFVNFLLVNGFQTAIDIFEDRIRGIDIIKWMERYLRDKTVMIIVAISPKYKQDVEGAESQLDEDEHGLHTKYIHRMMQIEFIKQGSMNFRFIPVLFPNAKKEHVPTWLQNTHVYSWPKNKKNILLRLLREEEYVAPPRGPLPTLQVVPL
notes: Endogenous protein in cells or cell lysate; also called CIKS; endogenous Act1

binding result (FLAG-hDcp1a): binds | binding result (FLAG-hIRAK1): no binding
B3: HA-hAct1 (other, human, UniProt O43734 1-574, looked up)
chain: B2 chain
notes: Printed as HA-hAct1 in the constructs and Act1-HA in the legends; also called Act1-HA; not shown: HA tag
